The results in this text go back to doi:10.1101/2020.05.08.084087 (bioRxiv, 2020).

In test [1] the target is T1, ABCB1-YFP E1.007A (Arabidopsis, UniProt Q9ZR72 1-1286, E1.007A).
T1 sequence: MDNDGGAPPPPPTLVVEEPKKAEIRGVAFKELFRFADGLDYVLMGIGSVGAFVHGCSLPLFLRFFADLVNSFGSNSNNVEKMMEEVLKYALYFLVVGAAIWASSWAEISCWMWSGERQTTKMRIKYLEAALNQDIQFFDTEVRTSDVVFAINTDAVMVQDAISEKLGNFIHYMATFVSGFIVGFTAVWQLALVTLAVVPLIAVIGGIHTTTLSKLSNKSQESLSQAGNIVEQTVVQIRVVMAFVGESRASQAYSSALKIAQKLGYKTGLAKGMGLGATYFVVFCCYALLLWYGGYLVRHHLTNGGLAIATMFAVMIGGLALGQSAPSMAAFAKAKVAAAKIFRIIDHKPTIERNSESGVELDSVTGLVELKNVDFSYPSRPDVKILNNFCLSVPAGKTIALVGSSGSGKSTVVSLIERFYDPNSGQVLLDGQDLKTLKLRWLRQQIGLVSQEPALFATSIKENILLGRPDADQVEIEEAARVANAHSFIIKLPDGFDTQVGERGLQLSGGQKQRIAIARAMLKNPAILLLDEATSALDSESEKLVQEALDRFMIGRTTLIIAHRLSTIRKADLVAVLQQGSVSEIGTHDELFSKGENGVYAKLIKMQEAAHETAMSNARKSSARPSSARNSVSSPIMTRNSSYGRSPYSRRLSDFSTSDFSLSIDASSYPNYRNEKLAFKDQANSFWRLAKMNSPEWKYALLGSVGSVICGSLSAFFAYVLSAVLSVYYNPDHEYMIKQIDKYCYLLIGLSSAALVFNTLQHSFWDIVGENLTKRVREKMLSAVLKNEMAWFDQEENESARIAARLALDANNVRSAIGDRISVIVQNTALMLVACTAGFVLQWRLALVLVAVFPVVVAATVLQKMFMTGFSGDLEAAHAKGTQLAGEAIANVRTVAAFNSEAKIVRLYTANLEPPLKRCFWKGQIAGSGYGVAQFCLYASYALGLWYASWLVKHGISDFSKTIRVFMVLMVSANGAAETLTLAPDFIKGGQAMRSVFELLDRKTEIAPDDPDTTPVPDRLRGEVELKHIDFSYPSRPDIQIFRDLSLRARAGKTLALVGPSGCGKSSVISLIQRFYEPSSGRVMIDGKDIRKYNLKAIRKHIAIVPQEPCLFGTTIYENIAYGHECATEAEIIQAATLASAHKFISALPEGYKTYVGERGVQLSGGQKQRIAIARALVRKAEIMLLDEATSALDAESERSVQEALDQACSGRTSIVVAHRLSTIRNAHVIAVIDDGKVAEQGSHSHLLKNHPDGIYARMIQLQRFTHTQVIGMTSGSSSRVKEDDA
As to the kind of experiment: FRET or BRET.

For test [2], the target named is T2, ABCB1-YFP P1.008G (Arabidopsis, UniProt Q9ZR72 1-1286, P1.008G).
T2 sequence: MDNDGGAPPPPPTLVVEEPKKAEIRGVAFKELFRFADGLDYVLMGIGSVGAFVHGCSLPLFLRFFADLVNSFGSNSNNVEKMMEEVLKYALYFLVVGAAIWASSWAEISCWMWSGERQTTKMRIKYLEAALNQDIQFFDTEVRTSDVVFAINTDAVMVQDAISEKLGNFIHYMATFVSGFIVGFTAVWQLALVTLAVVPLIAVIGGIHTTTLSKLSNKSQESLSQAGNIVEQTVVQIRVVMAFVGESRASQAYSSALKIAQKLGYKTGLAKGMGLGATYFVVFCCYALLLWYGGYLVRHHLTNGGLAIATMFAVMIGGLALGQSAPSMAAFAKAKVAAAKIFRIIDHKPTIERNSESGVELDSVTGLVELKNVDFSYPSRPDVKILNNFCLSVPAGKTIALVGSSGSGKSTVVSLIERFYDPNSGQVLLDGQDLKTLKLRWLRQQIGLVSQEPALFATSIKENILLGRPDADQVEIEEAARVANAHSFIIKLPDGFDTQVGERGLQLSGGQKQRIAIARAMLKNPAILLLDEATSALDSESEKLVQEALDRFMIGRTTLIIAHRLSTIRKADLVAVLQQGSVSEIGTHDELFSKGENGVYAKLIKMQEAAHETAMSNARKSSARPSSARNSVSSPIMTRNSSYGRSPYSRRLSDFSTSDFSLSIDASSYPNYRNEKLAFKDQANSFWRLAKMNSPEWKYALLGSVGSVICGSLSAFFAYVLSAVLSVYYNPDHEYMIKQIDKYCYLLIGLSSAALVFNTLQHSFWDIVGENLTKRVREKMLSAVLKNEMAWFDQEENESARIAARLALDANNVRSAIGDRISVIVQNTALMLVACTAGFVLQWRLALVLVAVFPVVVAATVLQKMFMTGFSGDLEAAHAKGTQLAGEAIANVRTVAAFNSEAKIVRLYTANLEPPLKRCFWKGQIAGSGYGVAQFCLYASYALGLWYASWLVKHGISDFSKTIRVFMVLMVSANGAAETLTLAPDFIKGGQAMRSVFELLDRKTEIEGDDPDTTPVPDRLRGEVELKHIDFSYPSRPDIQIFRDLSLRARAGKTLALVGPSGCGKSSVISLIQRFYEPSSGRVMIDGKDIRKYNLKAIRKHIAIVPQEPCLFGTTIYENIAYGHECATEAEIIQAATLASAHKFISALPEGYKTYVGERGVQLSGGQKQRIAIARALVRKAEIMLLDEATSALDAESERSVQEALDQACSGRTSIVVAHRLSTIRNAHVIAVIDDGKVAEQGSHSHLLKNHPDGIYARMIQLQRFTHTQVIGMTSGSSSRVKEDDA
As to the kind of experiment: FRET or BRET.

B1: TWD1-Rluc (natural protein)
chain: MDESLEHQTQTHDQESEIVTEGSAVVHSEPSQEGNVPPKVDSEAEVLDEKVSKQIIKEGHGSKPSKYSTCFLHYRAWTKNSQHKFEDTWHEQQPIELVLGKEKKELAGLAIGVASMKSGERALVHVGWELAYGKEGNFSFPNVPPMADLLYEVEVIGFDETKEGKARSDMTVEERIGAADRRKMDGNSLFKEEKLEEAMQQYEMAIAYMGDDFMFQLYGKYQDMALAVKNPCHLNIAACLIKLKRYDEAIGHCNIVLTEEEKNPKALFRRGKAKAELGQMDSARDDFRKAQKYAPDDKAIRRELRALAEQEKALYQKQKEMYKGIFKGKDEGGAKSKSLFWLIVLWQWFVSLFSRIFRRHRVKAD
For B1, the “reduction of the BRET ratio against Wt ABCB1-YFP” value was approximately 39% in test [1] and approximately 17% in test [2].
